According to publication PMC2706102 (Nature structural & molecular biology, 2009):

Target: the molecule itself
Assay: HPLC sedimentation assay of aggregation

| Protein | binding result |
| --- | --- |
| KKQQQQQQQQQQQQQQQQQQQQQQQQQQQQQQQQQQQKK [Q35] | binds |
| KKQQQQQQQQQQQQQQQQQQQQQQQQQQQQQQQQQQQPPPPPPPPPPKK [Q35P10] | binds |
